Laboratory results reported in patent US9926369B2, “Methods for treating hepatocellular cancer by administering an anti-Ang-2 antibody” (Regeneron Pharmaceuticals, Inc., priority 2009, dated 2018).
Where “and” joins values, the source holds several entries; their conditions need not be identical. Identical values can stand only once.

How the values were obtained:
Dimeric Monkey Ang-2FD = assay: Surface plasmon resonance binding to dimeric monkey Ang-2FD conjugated to human IgG1; set-up: species or system Macca fascicularis; details: SPR, room temperature
Sequence of Dimeric Monkey Ang-2FD (as listed by the source): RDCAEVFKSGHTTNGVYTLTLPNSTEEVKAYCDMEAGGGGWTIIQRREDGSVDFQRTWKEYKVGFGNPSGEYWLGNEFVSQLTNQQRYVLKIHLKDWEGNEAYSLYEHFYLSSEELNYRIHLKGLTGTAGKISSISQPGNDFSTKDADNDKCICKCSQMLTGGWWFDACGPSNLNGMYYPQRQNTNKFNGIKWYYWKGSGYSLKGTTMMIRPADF
Experimental: (§1) Equilibrium dissociation constants (KD values) for the binding of selected purified Ang-2 antibodies to dimeric fibrinogen-like domain of human (SEQ ID NO: 519), mouse (Mus musculus; SEQ ID NO: 520) and monkey (Macca fascicularis; SEQ ID NO: 521) Ang-2 (Ang-2FD) conjugated to human IgG1 (SEQ ID NO:528) were determined by surface kinetics using a real-time biosensor surface plasmon resonance assay. Antibody was captured on a goat anti-mouse IgG polyclonal antibody surface, a goat anti-human κ polyclonal antibody (Southern Biotech, Birmingham, Ala.) surface or a goat anti-human IgG polyclonal antibody (Jackson Immuno Research Lab, West Grove, Pa.) surface created through direct amine coupling to a BIACORE™ CM5 sensor chip to form a captured antibody surface. Varying concentrations (ranging from 50 nM to 6.25 nM) of protein were injected at 100 μl/min over captured antibody surface for 90 seconds. Antigen-antibody binding and dissociation were monitored in real time at room temperature. Kinetic analysis was performed to calculate KD and half-life of antigen/antibody complex dissociation.
The above experiment was repeated using selected purified anti-Ang-2 antibodies cloned onto human IgG1.

[1] = biological target: T1, hAng-2-WT binding to hTie-2-mFc (Homo sapiens, UniProt O15123); assay: Biosensor SPR blocking of hAng-2-WT binding to hTie-2-mFc-ecto surface; type: biochemical; details: 25 nM hAng-2-WT
T1 sequence (O15123 19-496): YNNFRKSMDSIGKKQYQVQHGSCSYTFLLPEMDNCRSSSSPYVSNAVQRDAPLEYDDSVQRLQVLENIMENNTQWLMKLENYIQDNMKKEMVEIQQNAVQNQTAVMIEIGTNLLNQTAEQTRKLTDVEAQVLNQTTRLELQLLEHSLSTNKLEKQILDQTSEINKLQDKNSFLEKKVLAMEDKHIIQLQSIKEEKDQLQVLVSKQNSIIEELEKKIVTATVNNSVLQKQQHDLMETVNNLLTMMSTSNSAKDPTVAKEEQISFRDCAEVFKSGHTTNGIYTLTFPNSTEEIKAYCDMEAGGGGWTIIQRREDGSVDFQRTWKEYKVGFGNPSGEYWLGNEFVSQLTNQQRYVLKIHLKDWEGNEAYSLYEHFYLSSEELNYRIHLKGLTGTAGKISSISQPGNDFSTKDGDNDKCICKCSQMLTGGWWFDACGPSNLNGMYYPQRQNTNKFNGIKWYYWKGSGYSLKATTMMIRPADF
Experimental: The foregoing experiment was repeated using different amounts of Ang-2 blockers and controls. In particular, a human Tie-2 full-length extracellular domain construct (hTie-2-mFc-ecto) was amine-coupled on a BIACORE™ chip to create a receptor-coated surface. Selected anti-hAng-2 antibodies and control constructs (50 or 150 nM) were mixed with hAng-2-WT (25 nM) followed by 60 minutes incubation at 25° C. to allow antibody-antigen binding to reach equilibrium. The equilibrated solutions were injected over the receptor surfaces at 10 μL/min for 5 minutes at 25° C. To evaluate the ability of the selected anti-hAng-2 antibodies to block Ang-1-WT binding to hTie-2, a similar procedure was followed except the antibodies were tested at three concentrations (50, 100 or 1000 nM) and incubated with 10 nM of hAng-1-WT. Changes in resonance units (RU) due to the binding of the Ang-2-WT or hAng-1-WT to hTie-2-mFc were determined. An irrelevant antibody with no binding to either angiopoietin was included in these experiments to establish the 0% blocking baseline, and a human Tie-2-mFc construct was used as a positive control for blocking. Results are summarized in Tables 21 (hAng-1 applied to a hTie-2 surface) and 22 (hAng-2 applied to a hTie-2 surface).

hAng-2-WT [2] = biological target: T2, hAng-2-WT (Homo sapiens, UniProt O15123); assay: SPR binding to full-length wild-type human Ang-2 (preferential binding)
T2 construct: wild-type human Ang-2 (hAng-2-WT)
T2 sequence (O15123 19-496): T1 sequence (O15123 19-496)
Experimental: Binding experiments (plasmon resonance assays) were conducted to ascertain whether selected antibodies bound to both Ang-2 and Ang-1 or if they preferentially bound to Ang-2 only. Each selected antibody or control construct was captured at a flow rate of 40 μL/min for 1 minute on a goat anti-human IgG polyclonal antibody surface created through direct chemical coupling to a BIACORE™ chip to form a captured antibody surface. Full-length wild-type human Ang-1 or Ang-2 at a concentration of 25 nM or 0.78 nM were injected over the captured antibody surface at a flowrate of 60 μL/min for 3 minutes, and antigen-antibody dissociation was monitored in real time for 20 minutes at either 25° C. or 37° C.

hAng-2-WT [3] = biological target: T2, hAng-2-WT; assay: SPR binding to wild-type human Ang-2 (Table 8)
Experimental: as §1
In yet another experiment, KD values for selected purified antibodies that bind to wild-type human Ang-2 (hAng-2-WT; SEQ ID NO: 518) and the fibrinogen-like domain of human Ang2 (hAng-2FD) were determined (as described above).

Substance: H1H685P: human anti-Ang-2 antibody, HCVR/LCVR SEQ ID NOs 18/20; also referred to as mAb1 [Antibody H1H685P]
- Kd (Dimeric Monkey Ang-2FD): 0.0994 nM
- Percent of Neg. Ctrl Binding (hAng-2 WT) ([1]; 50 nM antibody or control): 4.3%
- Specific Bound RU (hAng-2 WT) ([1]; 50 nM antibody or control): 12 RU
- Percent of Neg. Ctrl Binding (hAng-2 WT) ([1]; 150 nM antibody or control): 4.3%
- Specific Bound RU (hAng-2 WT) ([1]; 150 nM antibody or control): 12 RU
- kd, binding to hAng-2-WT (hAng-2-WT [2]; 25° C.): 1.6e-05 s⁻¹ and 8.5e-06 s⁻¹
- kd, binding to hAng-2-WT (hAng-2-WT [2]; 37° C.): 3.76e-05 s⁻¹ and 2.16e-05 s⁻¹
- Kd (hAng-2-WT [3]): 0.0476 nM
